B1: Guanyl-specific ribonuclease T1, P00651 (parent)
chain: MMYSKLLTLTTLLLPTALALPSLVERACDYTCGSNCYSSSDVSTAQAAGYQLHEDGETVGSNSYPHKYNNYEGFDFSVSSPYYEWPILSSGDVYSGGSPGADRVVFNENNQLAGVITHTGASGNNFVECT

Variants of: B1
Conditions: Aspergillus oryzae (strain ATCC 42149 / RIB 40), pH 6, Thermal, DSC, sodium acetate calcium acetate 20 mM 2 mM, Mops 50 mM, reversible: yes, structure 1RN1, whole UniProt chain shown; for ddG of mutation (higher = less stable) / heat capacity change of unfolding / unfolding free energy: 25 °C

Variant: Y68W W85Y
- ddG of mutation (higher = less stable): 1.03 kcal/mol
- heat capacity change of unfolding: 0.98 kcal/mol/K
- unfolding free energy: 6.76 kcal/mol
- Tm: 53.7 °C
- change of melting temperature, mutant - wild type (higher = more stable): -3.5 °C
- unfolding enthalpy (calorimetric): 91.8 kcal/mol

Variant: W85Y
- ddG of mutation (higher = less stable): 0.93 kcal/mol
- heat capacity change of unfolding: 0.98 kcal/mol/K
- unfolding free energy: 6.88 kcal/mol
- Tm: 54.3 °C
- change of melting temperature, mutant - wild type (higher = more stable): -2.9 °C
- unfolding enthalpy (calorimetric): 91.8 kcal/mol

Variant: H118A
- ddG of mutation (higher = less stable): 0.62 kcal/mol
- heat capacity change of unfolding: 0.98 kcal/mol/K
- unfolding free energy: 7.19 kcal/mol

Variant: Y50W W85Y
- ddG of mutation (higher = less stable): -0.29 kcal/mol
- heat capacity change of unfolding: 0.98 kcal/mol/K
- unfolding free energy: 8.1 kcal/mol
- Tm: 56.6 °C
- change of melting temperature, mutant - wild type (higher = more stable): -0.6 °C
- unfolding enthalpy (calorimetric): 101 kcal/mol

Variant: W85Y H118A
- ddG of mutation (higher = less stable): 1.53 kcal/mol
- heat capacity change of unfolding: 0.98 kcal/mol/K
- unfolding free energy: 6.26 kcal/mol
- Tm: 53.2 °C
- change of melting temperature, mutant - wild type (higher = more stable): -4 °C
- unfolding enthalpy (calorimetric): 87 kcal/mol

Variant: Y68W
- ddG of mutation (higher = less stable): 0.14 kcal/mol
- heat capacity change of unfolding: 0.98 kcal/mol/K
- unfolding free energy: 7.67 kcal/mol
- Tm: 56.6 °C
- change of melting temperature, mutant - wild type (higher = more stable): -0.6 °C
- unfolding enthalpy (calorimetric): 96.1 kcal/mol

Variant: Y71W
- heat capacity change of unfolding: 0.98 kcal/mol/K
- unfolding free energy: 8.56 kcal/mol
- Tm: 55.9 °C
- change of melting temperature, mutant - wild type (higher = more stable): -1.3 °C
- unfolding enthalpy (calorimetric): 107 kcal/mol

Variant: Y50W
- ddG of mutation (higher = less stable): -1.24 kcal/mol
- heat capacity change of unfolding: 0.98 kcal/mol/K
- unfolding free energy: 9.03 kcal/mol
- Tm: 58.8 °C
- change of melting temperature, mutant - wild type (higher = more stable): 1.6 °C
- unfolding enthalpy (calorimetric): 106 kcal/mol

Variant: Y71W W85Y
- ddG of mutation (higher = less stable): 0.91 kcal/mol
- heat capacity change of unfolding: 0.98 kcal/mol/K
- unfolding free energy: 6.91 kcal/mol
- Tm: 52.8 °C
- change of melting temperature, mutant - wild type (higher = more stable): -4.4 °C
- unfolding enthalpy (calorimetric): 95.1 kcal/mol

Variant: H66T
- ddG of mutation (higher = less stable): 0.26 kcal/mol
- heat capacity change of unfolding: 0.98 kcal/mol/K
- Tm: 56.7 °C
- change of melting temperature, mutant - wild type (higher = more stable): -0.5 °C
- unfolding enthalpy (calorimetric): 100 kcal/mol

Variant: H66T W85Y
- ddG of mutation (higher = less stable): 0.93 kcal/mol
- heat capacity change of unfolding: 0.98 kcal/mol/K
- unfolding free energy: 6.88 kcal/mol
- Tm: 53.9 °C
- change of melting temperature, mutant - wild type (higher = more stable): -3.3 °C
- unfolding enthalpy (calorimetric): 92.5 kcal/mol

Source: FireProtDB (doi:10.1111/j.1432-1033.1994.tb18652.x)
